Reference: PMC11257196

Molecular target: human serum albumin (human) (UniProt P02768)
Assay: ultrafiltration

Substance: interleukin-1 receptor antagonist in fusion to albumin binding domain (IL-1Ra-ABD) (from UniProt P18510 26-177)
- percent bound: 78%
- percent released from HSA in the first 50 h: 80%
